From the nanobody polyreactivity screen of Harvey et al. (2022)

Assay: yeast display, Sf9 membrane polyspecificity reagent, FACS + sequencing; frameworks hold sequencing errors
Procedure, shortened: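 Nanobodies came from a synthetic yeast display library in Saccharomyces cerevisiae BJ5465, induced with galactose for 36–48 hours and stained for 1 hour at 4 °C with 10% biotinylated, detergent-solubilized Sf9 membrane reagent. Cells were enriched on streptavidin microbeads and then FACS-sorted, with low and high (top ~1%) gates set on anti-HA fluorescence for expression and streptavidin fluorescence for reagent binding. Each polyreactivity label reflects the gate a clone came from. Genes were amplified by colony PCR, sequenced by MiSeq 2 × 250 and filtered by CDR length.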

Row | Sequence | polyreactivity (PSR sort gate)
1 | QVQLVESGGGLVQAGGSLRLSCAASGSIFAIYVMGWYRQAPGKERELVAAITWSGGSTYYADSVKGRFTISRDNAKNTVDLQMNSLKPEDTAVYYCAARVLRVRTVTTTWGQGTQVTLSS | high polyreactivity
2 | QVQLVESGGGLVQAGGSLRLSCAASGRTFRTYTMGWYRQAPGKEREFVAAIDRTGGSTYYADSVKGRFTISRDNAKNTVYLQMNSLKPEDTAVYYCAARFGSGFNYWGQGTQVTVSS | high polyreactivity
3 | QVQLVESGGGLVQAGGRLRLSCAASGRIFTYYVMGWYRQAPGKERELVASISGSGGRTYYADSVKGRFTISRDNAKNTVYLQMNSLKPEDTAVYYCATRLYKRTRTITYGYWGQGTQVTVSS | high polyreactivity
4 | QVQLEESGGGLVQAGGSLRLSCAASGNIFPRYAMGWYRQAPGKERELVAAISYSGARTYYADSVKGRFTISRDNAKNTVYLQMNSLKPEDTAVYYCNKRVYYPWGQGTQVTVSS | high polyreactivity
5 | QVQLVESGGGLVQAGGSLRLRSASSGYILFAYAMVWYRQAPGKERELVATISNYGGITYYAESVKGRFTISRDNAKNTVYLQMNRLKPEDNAVYYCAAAEAGGLVTYDYWGQGTQVTVSS | low polyreactivity
6 | QVQLVESGGGLVQAGGSLRLSCAASGRTFRYNDMGWYRQAPGKERELVADITFSGGNTYYADSVKGRFTISRVNAKNTVYLQMNSLKPEDTAVYYCAKRRYYTGGMDYWVQGTQVTVSS | low polyreactivity
7 | QVQLVESGGGLVQAGGSLRLSCAASGSTVRVYAMGWYRQAPGKERELVARISITGGTTRYADSVKGRFTISRDNAKNTVYLQMNSLKPEDTAVYYCNADYDWYYWYLYKYPFDYWRQGTQVTVSS | low polyreactivity
8 | QVQLVESGGGLVQAGGSLRLSCAASRRTYKYNAMGWYRQAPGKEREVVAAISRSGGSTYYADSVKGRFTISRDNAKNTVYLQMNILKPEDTAVYDCAVSYRPGGYRRHFRYVYWGQGTQVTVSS | high polyreactivity
9 | QVQLVESGGGLVQAGGSLRLSCAASGRTFRAYAMGGYRQAPGKERELVAAITSGGSTYYADSVKGRFTISRDNAKNTVYLQMNSLKPEDTAVYYCNRRGWSRTHQYDYWGQGTQVTESS | high polyreactivity
10 | QVQLVESGGGLVQAGGSLRLICAASGSILSINGMGWYRQAPGKERELVATIDGSDGSTFYADSVKGRFTISRDNAKNTVYLQMNSLKPEDTAVYYCAAENFWQTKEYDYWGQGTQVTVSS | low polyreactivity
11 | QVQLVESGGGLVQAGGSLSLSCAASGRTFIRNAMGWYRQAPRKEREVVAAINSCGITNYADSVNGRFTISRDNAKNTVDLQMNSLKPEDTAVYYCANTFQYYWFSLYDYWGQGTQVTVSS | low polyreactivity
12 | QVQLVESGGGLVQAGGSLRLSCAASGFIYGKNAMGWYRQAPGKERELVAAISQRGGSTYYADSVKGRFTISRDTAKNTVYLQMNSLKPEDTAVYYCAADGRRVVARYDYWGQVTQVTVSS | high polyreactivity
13 | QVQLVESGGGLVQAGGSLRLSCAASGITFNGYTMGWYRQAPGKEREFVAAITRRGGSTYYADSVKGRFTISRDNAKNTVYLQMNSLKPEDTAVYYCARVTRLGGGDYDYWGQGTQVTVSS | high polyreactivity
14 | QVQLVESGGGLVQAGGSLRLSCAASGRTFRAYALGWYRQAPGKERELVARISWSGGNTYNADSVKGRFTISRDHAKNTVYLQMNSLKPEDTAVYYCAKTYYPYPAQIYTGYSWGQGTQVTVSS | low polyreactivity
15 | QVQLVESGGGLVQAGGSLRLSCAASGVTFHGYTMGWYRQAPGKERELVAAITSGGGTNYADSVKGRFTISRDNAKNTVYLQMNSLKPEDTAVYYCAAGFHKRVTPEILYDYWGQGTQVTVSS | low polyreactivity
16 | QVQLVESGGGLVQAGGSLRLSCAASGRIFYFYAMGGYRQAPGKERELVAAISRRGGTTNYADSVKGRFTISRDNAKNTVYLQMNSLKPEDTAVYYCAADYQSVGGAEYDYWGQGTQVTVSS | high polyreactivity
17 | QVQLVESGGGLVQAGGSLRLSCAASGIIFTRNAMGWYRPAPGKERELVAASSRSGGSTYYADSVKGRFTISRDNAKNTVYLQMNSLKPEDTAVYDGAAAWSEYPYDYWGQGTQVTVSS | low polyreactivity
18 | QVQLVESGGGLVQAGGSLRLSCAASGRIFTANAMGWYRQAPGKERELVAAITSGTRTNYADSVKGRFTISRDNAKNTVYLQMNSLKPEDTAVFYCAKETATSKYDYWGQGTQVTVSS | low polyreactivity
19 | QVQLVESGGGLVQAGGSLRLSCAASGSTFRFNTMGWYRHAPGKDRELVAAITSGGSTYYADSVKGLFTISRDNAKNTVYLQMNSLKPEDTAVYYCAATWYIRGQCYYYWGQGTQVTVSS | high polyreactivity
20 | QVQLVDSGGGLVQAGGSLRLSCAASGSIFHVYAMGWYRQAPGKERELFAAIDRSGGSTYYADSVKGRFTISRDNAKNTVYLQMNSLKPEDTAVFYCAKDVLGGLITDGVGNDYWGQGTQLTVSS | low polyreactivity
21 | QVQLVESGGGLVQAGGSLLLSCAASGSTFYKNAMGWYRQAPGKERELVAAISSGGSTYYADSVKGRFTISRDNAKNTVYLQMNSLKPEDTAVYYCAADYYYIVDYWGQGTQVTVSS | high polyreactivity
22 | QVQLVESGGGLVQAGGSLRLSCAASGRIFRYYAMGWYRQAAGKERELVAAISYSGGRTYYADSVKGRFTISRDNAKNTVYVQMNSLKPEDTAVYYCASVWHSQSSYVPFDSWGQGTQVTVSS | high polyreactivity

Row | Sequence | polyreactivity (PSR sort gate)
23 | QVQLVESGGGLVQAGGSLRLSCAASGFIFSKYAMGWYRQAPGKERELVASISTSGGSTYYADSVKGRFTISRDNAKNTVYLQMNSLKPEDTAVYYCAVASRSHGYKRAYYYWGQGTQVTVSS | high polyreactivity
24 | QVQLVESGGGLVQAGGSLRLSCAASGRTFDRNTMGWYRQAPGKERELVAAISGSSARTYYADSVKGRFTISRDNAKNTVYLQMNSLKPEDTAVYYCNAEYGARAQHYEGDSWGQGTQVTVSS | high polyreactivity
25 | QVQLVESGGGLVQAGRSLRLSCAASGRTFLVYAMGWYRQAPGKERELVAVINSGTSTNYADSVKGRFTISRDNAKNTVYLQMNSQKPEDTAVYYCATAYRRRDRHYYWGQGTQVTVSS | low polyreactivity
26 | QVQLVESGGGLVQAGGSLRLSCAASGRIFHYNAMGWYRQAPAKERELVAAINRSGGTTNYADSVKGRFTISRDTAKNTVYLEMNSLIPEDTAVYYCNATLPDYWPYYYYLGGDDYWGQGTQVTVSS | low polyreactivity
27 | QVQLVETAGGLVQAGGSLRLSSAASGRIFPFNTMGWSRQAPGKERELVATITYRGDRTYYADSVKGRFTISRDNAKNTVYLQMNSLKPEDTGVYYCNARGTYYLGRYYWGQGTQETVSS | high polyreactivity
28 | QFQLVESCGGLVQAGGSLRLSCAASGPIFKSNAMGCYRQAPGKERELVAAISGSGGRTYYAHSVKGRFTISRDNANNTVYLQMNSLKPEDTAVYYCNAGGSYYARGMDYWGQGTQVTVSS | high polyreactivity
29 | QVQLVESGGGLVQAGGSLRLSCAASGSIFAPYAMGWYRQAPGKERELVATIRTTGDSTYYADSVKGRFTISRDNAKNTVYLQMNSLKPEDTAVYYCAAQQGVISRGNYWGQGTQVTVSS | low polyreactivity
30 | QVQLVESGGGLVQAGGSLRLSCAASGRIFIGNAMGWYRQAPGKERELVAAISKRGGSTYYADSVKGRFTISRDNAKNTVYLQMNSLKPEDTAVYYCNTESLYREFDDWGQGTQGTVSS | low polyreactivity
31 | QVQLVESGGGLVQAGGSLRLSCAASGSTFRSYAMGWYRPAPGTERELVAAISYSGDSTYYADSVTGRFTISRDIAKNTVFLQMKRLKPVDTAVYYCAALRDWDIQGEPWKRYGYWGQGTQVTVSS | low polyreactivity
32 | QVQLVESGGGLVQAGGSLRLSCAASGLISLYYAMGWYRQAPGKERELVARITGSGGDTYYADSVKGRFTISRDNAKNTVYLQMNSLKPEDTAVSYCAAPALDWGQGTQVTVSS | low polyreactivity
33 | QVQLVESGGGLVQAGGSLRLSCAATGITFRYNAMGWYRLAPGKERELVAAITFSGGSTYYADSVKGRFTISRDNAKNTVYLQMNSLKPEDTAVYYCAKLGSTSSRGNYDYWGQGTQVTVSS | low polyreactivity
34 | QVQLVESGGGLVQAGGSLRLICAASGSTFLVNTMGWYRQAPGKERELVAAISYSGGRTYYADSVKGRFTISRDNAKNTVYFQMNSLKPEDTAVYYCAARYYRTRREGVDYWGQGTQVTVSS | high polyreactivity
35 | QVQLVESGGGLVQAGGSLRLSCAASGIIFYEYVMGWYRQAPGKERELVAAISRSGGSTYYADSVKGRFTISRDNAKNTVYLQMNSLKPEDTAVYYCAVDAYRYWWTTYVSDFDYWGQGTQVTVSS | high polyreactivity
36 | QVQLVESGGGLVQAGGSLRLSCAASGFTFTGNAMGWYRQAPGKERELVAAISRSGGSTFYADSVKGRFTISRDNAKNTVYLQMNSLKPEDTAVYYCAARRRTLNYLYDYWGQGTQVTVSS | high polyreactivity
37 | QVELVESGGGVVQAGGSLRLSCAASGYIFRAYAMGWYRQAPGKERELVAAISSRGGSKYYADSVKGRFTSSRDNAKNTVYLQMNSLIPEDTAVYYCAAAYRKPYIGYGYWGQGTQGTVSS | high polyreactivity
38 | QVQLVESGGGLVQAGGSLRLSCAASGRTFRWYAMGWYRQAPGKERELVAAITSSSSTNYADSVKGRFTISRDNAKNTVYLQMNSLKPEDTAVYYCAKGWNWYDLGESGYWGQGTQVTVSS | low polyreactivity
39 | QVQLVESGGGLVQAGGSLRLSCAASGSIFIYYAMGWYRQAPGKERELVAAISFSGARTYYADSVKGRFTISRDNAKNTVFLQMNSLKPEDTAVYYCNVEIGTGDYDYWGQGTQVTVSS | low polyreactivity
40 | QVQLVESGGGLVQAGGSLRLSCAASGYTFRYYAMGWYRQAPGKEREFVAAITWSDSGTYYADSVKGRFTISRDNAKNTVYLQMNSLKPEDTAVYYCAAERYLSFDRYLYEYYYWGQGTQVTVSS | low polyreactivity
41 | QVQLVESGGGLVQAGGSLRLSCAASGTMGWYRQAPGKERELVAAISQSGGSTYYADSVKGRFTISRDNAKNTVYLQMNSLKPEDTAVYYCAVDPRYGHPRRDYWGQGTQVTVSS | low polyreactivity
42 | QVQLQESGGGLVQAGGSLRLSCAASGSIFDYVSMGWYRQAPREERELVVTITLGSNTYYADSVKGRFTISSDIGKNTVYLQMNSLNPEDTAVYYCAASALWGYVYPYWGLGTQVTVSS | high polyreactivity
43 | QFQLVESGGGLVQAGGSLRLSCADSVRTLYRNVMVWYRHAPVKERELVAAISLSGGSTYYEDSVKGRFTISRDNANYTVYLQMNSMKPEYTAVYYCAVKRPYCPGEYGYWGQGTQVTVSS | high polyreactivity
